Measurements reported in US7465453B2, “Polypeptide fragments of CKLF1” (Peking University, priority 2004, dated 2008).

Legend:
Format in all cases: cell-based
CCR4 = target: T1, CCR4 (Homo sapiens, UniProt P51679); assay: Calcium flux assay in CCR4-transfected HEK293 cells; details: for calcium flux: CCR4-transfected HEK293 cells, 167 nM C27 or C19, 100 nM TARC; for desensitization of transfectants to subsequent TARC treatment: CCR4 transfectants, first 167 nM peptide, then 100 nM TARC
T1 construct: The cDNA fragments covering the open reading frames for various chemokine receptors were obtained as follows; expressed in transfected cells; host or cells: HEK293 (transient, electroporation)
T1 sequence (P51679 1-360): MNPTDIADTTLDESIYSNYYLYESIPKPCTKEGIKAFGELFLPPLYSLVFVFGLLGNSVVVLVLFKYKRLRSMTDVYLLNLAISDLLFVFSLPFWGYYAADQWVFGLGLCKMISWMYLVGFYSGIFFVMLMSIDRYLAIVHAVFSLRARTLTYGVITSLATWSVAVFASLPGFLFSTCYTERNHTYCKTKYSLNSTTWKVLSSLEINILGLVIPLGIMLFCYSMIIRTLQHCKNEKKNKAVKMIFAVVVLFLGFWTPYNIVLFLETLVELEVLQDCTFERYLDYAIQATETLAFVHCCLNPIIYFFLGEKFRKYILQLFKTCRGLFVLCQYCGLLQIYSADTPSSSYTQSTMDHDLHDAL
Text: The cDNA fragments covering the open reading frames for various chemokine receptors were obtained as follows. CCR4, CCR5 and CCR6 receptors were cloned from a K562 cell cDNA library by polymerase chain reaction (PCR). The primers were designed using the sequences from the following GenBank™ submissions: CCR4 (NM_005508.2), CCR5 (NM_000579) and CCR6 (AY242126). The fragments were cloned into an expression vector pcDI (modified in our lab from pcDNA3 vector (Invitrogen), in which the part between BgI II-Kpn I was replaced by the fragment of pCl vector (Promega) digested with BgI II-Kpn I) or pEGFP-N1 vector (CLONTECH) for efficient expression in HEK293 cells. The sequences coding receptors in expression plasmids were confirmed by DNA sequencing, which is consistent with the sequence submitted in GenBank™.
(§1) HEK293 cells were grown in RPMI 1640 supplemented with 10% heat-inactivated FBS, penicillin (100 U/ml) and streptomycin (100 μg/ml). Every 4×10^6 HEK293 cells in 400 μl were transiently transfected by electroporation with 15 μg of the expression plasmid at 120 V, 20 ms using an electric pulse generator (Electro Square Porator ECM 830, BTX, San Diego, Calif.), and calcium mobilization assay and chemotaxis assays were performed 48 hours later.
HEK293 cells transfected with pcDI-CCR4 or pcDI-CCR5 were grown in specialized glass-bottom microwell dishes (MatTek Corporation, U.S.A.) and loaded with 10 μM fluo-3/AM in HEPES-buffered saline at 37° C. for 1 hour in the dark. The cells were rinsed with HEPES-buffered saline and stimulated with 167 nM secreted CKLF1 peptides and 100 nM TARC or RANTES, respectively. Fluorescence was monitored at 488 nm (excitation wavelength) and 530 nm (emission wavelength) every 5 second using a Leica TCS-NT confocal fluorescence microscope with a 40× oil immersion lens (Wetzler, Heidelberg, Germany). The measurement was completed at room temperature and each field of cells was selected at random. Images were collected at 5 second intervals for 405 seconds. The images were analyzed for relative fluorescence using Leica confocal software. The relative fluorescence was determined using Microsoft Excel. All calcium flux assays were performed in the presence of extracellular calcium (in the absence of EDTA or EGTA) in the assay buffers. Therefore, both intracellular calcium release and extracellular calcium influx were analyzed.

CCR5 = target: T2, CCR5 (Homo sapiens, UniProt P51681); assay: Chemotaxis assay (48-well microchemotaxis chamber) of HEK293 cells transfected with CCR5; details: for chemotaxis induced after PTX pretreatment: CCR5-transfected HEK293 cells treated with 100 ng/ml PTX at 37° C. for 30 min; for desensitization of the receptor to subsequent stimulation with RANTES, C27 or C19 (chemotaxis): HEK293/CCR5, pretreatment 1 mM RANTES or 2 μg/ml C27 or C19, 37° C., 30 min
T2 construct: The cDNA fragments covering the open reading frames for various chemokine receptors were obtained as follows; expressed in transfected cells; host or cells: HEK293 (transient, electroporation)
Experimental: as §1
The chemotaxis assay was performed using a 48-well microchemotaxis chamber (Neutroprobe; Cabin John, Md., U.S.A.). Chemoattractants were diluted in HEPES-buffered RPMI 1640 medium supplemented with 0.1% BSA and placed in the lower wells (28 μl/well). HEK293 cells transfected with pcDI-CCR4, -CCR5 were resuspended in the same medium at 2×10^6 cells/ml and added to the upper wells (50 μl/well), which were separated from the lower wells by a polyvinylpyrrolidone-free polycarbonate filter with 8-μm pores. The chamber was incubated for 2 hours at 37° C. in 5% CO2 and 95% air. Filters were removed from the chamber, washed, fixed, and stained with Three Step Stain Set. Cells that migrated were counted in 5 randomly selected high power fields (400×) per well. The chemotactic index (CI) was calculated from the number of cells that migrated to the control. Significant chemotaxis was defined as CI>2. […]

CCR6 = target: T3, CCR6 (Homo sapiens, UniProt P51684); assay: Internalization of CCR6-EGFP in transiently transfected HEK293 cells; details: HEK293 cells transfected with pCCR6-EGFP; 37° C., 2 hours
T3 construct: The cDNA fragment covering the open reading frame for CCR6 chemokine receptor was cloned into pEGFP-N1 vector (CLONTECH); expressed in transfected cells; host or cells: HEK293 (transient)
T3 sequence (P51684 1-374): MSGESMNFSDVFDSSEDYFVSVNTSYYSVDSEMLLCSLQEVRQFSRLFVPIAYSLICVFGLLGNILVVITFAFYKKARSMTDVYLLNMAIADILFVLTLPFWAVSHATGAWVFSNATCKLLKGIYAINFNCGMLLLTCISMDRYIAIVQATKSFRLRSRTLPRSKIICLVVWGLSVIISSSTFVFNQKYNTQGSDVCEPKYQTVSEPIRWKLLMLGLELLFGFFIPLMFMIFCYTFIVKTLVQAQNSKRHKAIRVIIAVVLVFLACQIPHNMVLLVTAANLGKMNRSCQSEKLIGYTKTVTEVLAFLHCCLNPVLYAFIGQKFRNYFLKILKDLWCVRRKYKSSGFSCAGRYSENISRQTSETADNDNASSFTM
Experimental: The cDNA fragment covering the open reading frame for CCR6 chemokine receptor was cloned into pEGFP-N1 vector (CLONTECH). pCCR6-EGFP transiently expressing HEK293 cells were cultured in glass-bottom dishes in RPMI 1640 with 10% FBS. After 16-24 hours of serum starvation, cells were treated with CKLF1 C-terminal peptides or MIP3α at 37° C. for 2 hours. Cells were washed with cold PBS and fixed with 2% paraformaldehyde in PBS. The subcellular localization of CCR6-EGFP protein was visualized using a Leica TCS-NT confocal fluorescence microscope with a 63× oil immersion lens (Wetzler, Heidelberg, Germany). The excitation and emission wavelengths were 488 and 515-540 nm, respectively.

T2 sequence (P51681 whole entry, the tested form may be a part): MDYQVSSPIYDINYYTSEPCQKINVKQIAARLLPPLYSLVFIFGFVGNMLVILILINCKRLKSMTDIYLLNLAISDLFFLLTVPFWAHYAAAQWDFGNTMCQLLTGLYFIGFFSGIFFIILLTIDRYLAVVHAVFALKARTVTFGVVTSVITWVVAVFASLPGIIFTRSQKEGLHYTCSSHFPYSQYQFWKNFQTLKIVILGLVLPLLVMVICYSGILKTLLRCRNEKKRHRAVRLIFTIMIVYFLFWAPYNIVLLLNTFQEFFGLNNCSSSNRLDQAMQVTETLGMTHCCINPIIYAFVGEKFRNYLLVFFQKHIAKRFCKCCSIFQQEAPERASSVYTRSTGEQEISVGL

Row | Substance | calcium flux (CCR4) | desensitization of transfectants to subsequent TARC treatment (CCR4) | migration (chemotaxis) of transfected cells (CCR5; CCR5-transfected HEK293 cells) | chemotaxis induced after PTX pretreatment (CCR5) | desensitization of the receptor to subsequent stimulation with RANTES, C27 or C19 (chemotaxis) (CCR5) | internalization of CCR6-EGFP (CCR6)
1 | ALIYRKL LFNPSGPYQKKPVHEKKEVL (ALIYRKLLFNPSGPYQKKPVHEKKEVL; listed as Homo sapiens) [C27] | could induce calcium flux | could desensitize | could induce migration | completely abolished by PTX | could desensitize the receptor | could induce internalization of CCR6-EGFP
2 | FNPSGPYQKKPVHEKKEVL (listed as Homo sapiens) [C19] | could induce calcium flux | could desensitize | – | completely abolished by PTX | could desensitize the receptor | could induce internalization of CCR6-EGFP
